This is an account of results in patent US20110045604A1.

The target in test [1] is SUMO-ARVCF peptide fusion protein (yeast). Briefly: SPR; linker mutant immobilised on Ni-NTA chip, SUMO-peptide fusion as analyte.
Test [2] shares this target. The test is described as follows: SPR (BIAcore 2000); clamp immobilised on Ni-NTA chip, SUMO-peptide fusion as analyte. (In general: SPR reads the build-up and loss of mass on a sensor chip optically.)
Test [3] has the same target. The test is described as follows: SPR; clamp immobilised on Ni-NTA chip, SUMO-peptide fusion as analyte.
Test [4] has as its target SUMO-ARVCF peptide fusion protein, Ala substitution at position -5 (yeast). The test is described as follows: SPR, Ala scanning; reference wild-type ARVCF peptide.
In test [5] the target is SUMO-ARVCF peptide fusion protein, Ala substitution at position -7 (yeast). The description is as above.
Test [6] concerns the target SUMO-ARVCF peptide fusion protein, Ala substitution at position -6 (yeast). Described as above.
The target in test [7] is SUMO-ARVCF peptide fusion protein, Ala substitution at position -4 (yeast). The description is as above.
Test [8] deals with SUMO-δ-catenin peptide fusion protein (yeast). The test is described as follows: ratio of SPR Kd values, reference ARVCF peptide.
The target is the same in test [9]. The test is described as follows: binding analysis of purified protein; reference ARVCF peptide.
In test [10] the target is SUMO-ARVCF peptide fusion protein (yeast). Briefly: SPR; linker mutant against ePDZ-b with the GGSGG linker.

Sequence of ePDZ-b linker mutant GGSG (Q96RT1 other isoform, or with tags, fused parts or gaps, change not shown): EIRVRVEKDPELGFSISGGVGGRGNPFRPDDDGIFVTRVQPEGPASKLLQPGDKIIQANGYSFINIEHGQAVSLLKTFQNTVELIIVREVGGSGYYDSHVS
Sequence of ePDZ-a linker mutant GGS (Q96RT1 other isoform, or with tags, fused parts or gaps, change not shown): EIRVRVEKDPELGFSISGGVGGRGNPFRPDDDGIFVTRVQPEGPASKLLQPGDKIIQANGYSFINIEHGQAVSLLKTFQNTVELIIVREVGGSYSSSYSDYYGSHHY
Sequence of ePDZ-b linker mutant GGS (Q96RT1 other isoform, or with tags, fused parts or gaps, change not shown): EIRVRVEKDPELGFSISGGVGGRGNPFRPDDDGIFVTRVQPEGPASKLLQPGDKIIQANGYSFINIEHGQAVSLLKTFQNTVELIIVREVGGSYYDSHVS
Sequence of ePDZ-a linker mutant GGSG (Q96RT1 other isoform, or with tags, fused parts or gaps, change not shown): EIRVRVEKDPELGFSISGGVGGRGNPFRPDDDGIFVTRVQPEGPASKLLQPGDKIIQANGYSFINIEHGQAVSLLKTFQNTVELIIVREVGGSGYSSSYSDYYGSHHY
Sequence of ePDZ-a linker mutant GG (Q96RT1 other isoform, or with tags, fused parts or gaps, change not shown): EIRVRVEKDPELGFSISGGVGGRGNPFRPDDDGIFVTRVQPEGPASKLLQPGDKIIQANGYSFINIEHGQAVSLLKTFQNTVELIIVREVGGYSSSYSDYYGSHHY

For “ePDZ-a linker mutant GG (from UniProt Q96RT1 1321-1410) (designed binder)”, the Kd in [1] worked out at 311 nM.

For “ePDZ-b (from UniProt Q96RT1 1321-1410) (designed binder)”, the Kd in test [2] and in test [3] was 56 nM each time. The same substance came in with a koff in test [2] of 0.011 s⁻¹. In test [2], this substance displayed an association rate constant (kon) of 190000 M⁻¹ s⁻¹. Also, the fold decrease in binding affinity against the wild-type ARVCF peptide in [4], in test [5], in test [6] and in test [7] was over 5 fold each time. The ΔΔG upon Ala substitution of the ARVCF peptide in [4] is over 1 kcal/mol; in test [5], over 1 kcal/mol; in test [6] it was over 1 kcal/mol; in test [7], over 3 kcal/mol. In addition, the Specificity Index (Kd for δ-catenin / Kd for ARVCF) in test [8] is over 446. The fold discrimination between the two targets in test [9] amounted to 200 fold.

“ePDZ-a linker mutant GGS (from UniProt Q96RT1 1321-1410) (designed binder)”: the equilibrium dissociation constant (Kd) in test [1] was 134 nM.

Consider “ePDZ-b linker mutant GGS (from UniProt Q96RT1 1321-1410) (designed binder)”, for which the dissociation constant Kd in test [1] was over 5000 nM.

Regarding “ePDZ-b linker mutant GGSG (from UniProt Q96RT1 1321-1410) (designed binder)”, the fold reduction of binding affinity against the original linker in test [10] was 8 fold. This substance returned a dissociation constant (Kd) in [1] of 412 nM.

The substance “ePDZ-a linker mutant GGSG (from UniProt Q96RT1 1321-1410) (designed binder)” returned a dissociation constant Kd in test [1] of 117 nM.

Usually Kd stands for the constant that tells how readily two partners part at equilibrium. The low end stands for a tighter complex, the high end for a looser complex. Broadly, the koff is a measure of how fast the partners let go of each other. A high value points to a short-lived complex. The kon is a measure of how fast the partners come together. Low readings indicate slower complex formation, high ones faster complex formation.
